# Laboratory results taken from the nanobody polyreactivity screen of Harvey et al. (2022).
# Test: yeast display, Sf9 membrane polyspecificity reagent, FACS + sequencing; frameworks hold sequencing errors
# In short: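 Genes from sorted yeast were amplified by colony PCR, read by MiSeq 2 × 250 sequencing and filtered on CDR length. These cells carried a synthetic nanobody library in Saccharomyces cerevisiae BJ5465 and were sorted by FACS into low and high (top ~1%) gates on anti-HA and streptavidin fluorescence. Polyreactivity is labelled according to the gate of origin.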
row,Sequence,polyreactivity (PSR sort gate)
1,QVQLVESGGGLVQAGGSLRLSCAASGRTLGVYAMGWYRPAPGKERELVATITAGGSITSYADSVKGRFTISRDNAKNTVYLQMNSLKPEDTAVYYCAADVPGNYRKYRYGRASSHDYWGQGTQVTVSS,low polyreactivity
2,QVQLVESGGGLVQAGGSLRLSCAASGSIFASNAMGWYRQAPGKEREFVAAIYWSGTRTYYADSVKGRFTISRDNAKNTVYLQLKSLKPEDTAVYYCAALTVLRNDYWGQGTQVSVSS,low polyreactivity
3,QVQLGESGGGLLQAGGSVRLSCAASGRTITANAMGLYRQAPGKERELFATISTRGGRTYYADSVKGRFTISRDNSKNTVYLQMHSLKPEETAVFYGAFTIRAKYTLKEDYWGQGTQVTVSS,low polyreactivity
4,QVQLVETGGGLVQAGGSLRLSCAASGSTFKGYAMGWYRQSPGKERELVAAISRSGTRTYYADSVKGRFTISRDNAKNTVYLQMNSLKPEDTAVSFCNKDTGYIAHDNENGRDYWGQGTQVTVSS,low polyreactivity
5,QVQLVESGRGLVQAGGSLRLSCAASGSIFIYYAMGWYRQAPGKERELVAAISFSGARTYYADSVKGRFTISRDNAKNTVYLQMNSLKPEDTAVYYCNGARYSRRWPSEYWGQGTQVTVSS,low polyreactivity
6,QVQLVESGGGLVQAGGSLRLSCAASGSIFTFYAMGWYRPAPGKERELVAAITRSGGSTYYADSVKGRFTISRDNAKNTVYLQMNSLKPEDTAVYYCAKDPSSYVTYRYYYWGQGTEVTVSS,low polyreactivity
7,QVQLVESGGGLVQAGGSLRLRCAASGSTFTSYTMGWYRQAPGKERELVARITRGGGSTYYADSVKGRFTISRDNAKNTVYLQMNSLKPEDTAVYYCAKQVVGRAYYSWGQGTQVTVSS,low polyreactivity
8,QVQLVESGGGLVQAGGSLRLSCAASGRTIRYYTMGWYRQAPGKETELVATITGTGSTNYADSVKGRFTISRDNAKNTVYFQMNSLKPEDTEVYYCNARWDFVGTWRIYNYWGQGTQVTVSS,high polyreactivity
9,QVQLVESGGGLVQAGGSLRLSCAASGRTFVYNAMGWYRQAPGKERELVAAISQSGGSTYYADSVKGRFTISRDTAKNSVYLQMNSLKPEVTAVYDCAARYTTGSYVRYNFWGQGTQVTVSS,high polyreactivity
10,QDQHVESAGGLVQAGGSLRLSCAASGRIFTINARGWYRQAPGKERELVAGISGRSGGTYYADSVKGRFTISRDNAKNTVYLEMNSLKPEDTAVYYCAGDDWYSTYFEFNYWGQGTQVTVSS,low polyreactivity
11,QVQLVESGGGLVQAGGSLRLSCAASGSIFYYNAMGWYRQAPGKEREFVAAITISGGDTYYADSVKGRFTISRDNAKNTVYLQMNSLKPEDTAVYYCAAESYRGYDYWGQGTQVTVSS,high polyreactivity
12,QVQLVESGGGLVQAGGSLRLSCAASGSSFSRYDMGWYRQAPGKERELVATITRPGRTYYADSVKGRFTISRDNATKTVYLQMNSLKPEDTAVYYCAKDAGKTYYVDGSLEYDSWGQGTQVTVSS,low polyreactivity
13,QVQLVESGGGLVQAGGSLRLSCAASGRTFYTYVMGWYRQAPGKEREFVAAITYSGGSTYYADSVKGRFTISRDNAKNTVYLQMNSLKPEDTAVYYCNAEWTYSEWYGQYLEFDYWGQGTQVTVSS,high polyreactivity
14,QVQLEESGGGLVQAGGSLRLSCAASGITFLTYAMGWYRQATVKERELVAGITSGGTTYYADSVKGRFTISRDNAMNTVYLQMNSLKPEDTAVYYCNADLQEYQSYDYWGQGTQVTVSS,low polyreactivity
15,QVQLVESGGGLVQAGGSLRLSCAASGSIFGGSGMGWYRQAPGKERELVAAITSGSSTYYADSVKGRFTISRDNAKNTVYLQMNSLKPEDTAVYYCAARPYPHSAYEGDYWGRGTQVTVSS,low polyreactivity
16,QVQLVESGGGLVQAGGILRLSFAASGFISLDYAMGWYRQAPGKERELVAAISNGGGTNYADSVKGRFTISRDNAKNTVYLQMNSLKPEDTAVYYCNASVSYGYEYDSWGQGTQVTVSS,low polyreactivity
17,QVQLVESGGGLVQAGGSLRLSCAASGRIFARNAMGWYRQAPGKERELVADITSTGSTNYADSVKGRFTISRDNAMITVYLQMNSLKPEDTAVYYCAADYYTGYVWEDYYWGQGTQVTVSS,low polyreactivity
18,QVQLVESGGGLVQAGGSLRLSCAASGRTYAAYAMGWYRQAPGKERELVAAISIGGSTNYADSVKGRFTISRDNAKNTVYLLMNSLKPEDTAVYYCAAGTWAVSKYLEWLEFYYWGKGTQVTVSS,high polyreactivity
19,QVQLVESGGGLVQAGGSLRLSCAASGRIFRFYAMGWYRQAPGKERELVAGITYSGGSTFYADSVKGRFTISRDNAKNTVYLQMNSLKPEDTAVYYCAAVYVPYYWLGRSRGLDYWGQGTQVTVSS,high polyreactivity
20,QVQLVESGGGLVQAGGSLRLSCAASGFTFDYNAMGWYRQAPGKERELVAGITSGGRTYYADSVKGRFTISRDNAKNTVYLQMNSLKPEDTAVYYCAATPEPPAYGTPLVPYSYDYWGQGTQVTVSS,low polyreactivity
21,QVQLVESGGGLVQAGGSLRLSCAASGFIFSRYAMGCYRQSPGKERELVATIRRSGRTNYADSVKGRFTISRDNAKNTFYLQMNSLKPEDTAVYYCAKPGQWHRYHYGSWGQGTQVTVSS,low polyreactivity
22,QVQLVESGGGLVQAGGSLRLSCAASGFTFRVYAMGWYRQAPGKERDLVAPISLRGDRTYYADSVKGRFTISRDYAKNTEYLQMNRLKPEDTAVYYCHAYASYQISQDDYDYWGQGTQVTVSS,high polyreactivity

row,Sequence,polyreactivity (PSR sort gate)
1,QVQLVESGGGLVQAGGSLRLSCAASGSTFVWNAMGWSRQAPGKERQLVAAIDSGGSTNYADSVKGRFTISRDNAKNTVYLQMNSLKPEDTAVYYCATDQGYRYLKIYVYGDAFDYWGQGTQVTVSS,low polyreactivity
2,QVQLVESGGGLVQAGGSLRLSCAASGFTCPSYNMRWYRQAPGKERELVAAISRSDGNTYYADSVKGRFTISRDNAKNTVYLQMNSLKPEDTEVYYCAAEYEAYAYEYWGQGTQVTVSS,high polyreactivity
3,QVQLVESGGGLVQEGGSLRLSCAASGRTLYRNAMGWYRQAPGKERELVAAISRSGGRTSYADSVKGRFTISRDNANNTVYLQMNSLIPEDTAVYYCNDVASHEFDYWGEGTQVTVSS,high polyreactivity
4,QVQLVQSGGGLVQAGGSLRLSCAAMGWYRQAPGKERELVATITWSGGSTYYADSVKGRFTISRDNAKNTVYLQMNSLKPEDTAVYYCNARATLLSPANTILGYDYWGQGTQVTVSS,low polyreactivity
5,QVQLVESGGGLVQAGGSLRLSCAASGRIFTINAMGWYRQAPGKERELVAAISNSGGRTYADSVKGRFTISRDNAKNTVYLLMNSLKAEDTAVYYCAKRYRFHFWGQGTQVTVSS,low polyreactivity
6,QVQLVESGGGLVQAGGSLRLSCAASGIILDEYAMGVYSQAPGKERELVAAITWIGGSTYADSVKGRFTISRDNAKNTVYLQMNRLKPEDTAVYYCAADYPSLFVCYGYGWYNYDYWGQGTQVTVSS,low polyreactivity
7,QVQLVESGGGLVQAGGSLRLSCAASGFIFSTYAMGWYRQAPGKERELVASTSRRAGRTYYADSVKGRFTISRDNAKNTVYLQMNSLKPEDTAVYYCAAEARVGYHFQILDYWGQGTQVTVSS,high polyreactivity
8,QVQLVESGGGLVQAGGSLRLSCAASGRIFNRNAMGWYRQAPGKEREFVAAISRSGGTTYYADSVKGRFTFSRDNAKNTVYLQINSLKPEDTAFYYCNAVRYQTEVDYWGQGTQVTVSS,high polyreactivity
9,QVQLVESGGGLVQAGGSLRLSCAASGRIFFVYAMGWYRQAPGKERELVAHIPSGGSTSYADSVKGRFTISRDNAKNTDYLQMNSLKPEDTAVYSCAARYLGYIYVYYHYTDDYWGQGTQVTVSS,low polyreactivity
10,QVQLVESGGGLVQAGGSLRLSCAASGFTFYRYTMGWYRQAPGKERELVAVISSGGRTNYADSVKGRFTISRDNAKNTVYLQMNSLKPEDTAVYYCATRYPGYRDGYDYWGQGTQVSVSS,high polyreactivity
11,QVQLVESGGGLVQAGGSLRLSCAASGFTFRYYAMGWYRQAPGKERELVARISSRGGSTNYADSVKGRFTISRDNAKNTVYLQMNSLKAEDTAVYFCAAASWNSNRHYYVARYYYWGQGTQVTVSS,high polyreactivity
12,QVEHVESGGGLVQAGGSLRLSCAASGGTFSHNDMGWYRQAPGKERELVPSINSGGSTNYADSVKGRFTISRDNAKNTVDLQMNSLKPEDNAVYYCAADVEGWTVESDVYRVGYDYWGQCTQVTVSS,low polyreactivity
13,QVQLVESGGGLVQAGGSLRLSCAASGSIFWSNAMGWYRQAAGKERELVASITRSGGSTYYADSVKGRFTISRDNAKNTVYLQMNSLKPEDTAVYYCAARTRGSSYHFDYWGQGTQVTVSS,high polyreactivity
14,QVQLVESGGGLVQAGGSLRLTCAASGRIFTGYAMGWYRQAPWKERELVAAISRGSSTYADSVKGRFTISRDNAKNTVYLQRNSLKPEDTAVYYCAAKWRAADWWPRTSQYDYWGQGTQVTVSS,high polyreactivity
15,QVQLVESGGGLVQAGGSLRLSCAASGSTFRSYDMGWYRQAPGKERELVAASSSGGSTNYADSVKGRFTISRDNAKNTVYLQMNSLKPEDTAVYYCNAEYPYYWFKYDYWGQGTQVTVSS,low polyreactivity
16,QDQLVDSGGGLVQAGGSLRFSCAASGFIFRFNAMGWYRQAPGKERELVADIRWSSGSTYYADSVKGRYTISRDNAKNTVYLEMNSLKPEDTAVFYCAVTYLRVHYKFTPFDYWGQGTQVTVSS,low polyreactivity
17,QVQLVESGGGLVQAGGSLRLSCAASGRISFRYAMGWYRQAPGKERELVAAINRGGITNYADSVKGRFTISRDNAKNTVYLQMNSLKTEDTAVYYCAARYASPRYKSKMEYWGQGTQVTVSS,high polyreactivity
18,QVQLVESGGGLVQAGGSLRLSCAASGITFGRNTMGWYRQAPGKERELVAAIDSGGNTYADSVKGRFTISRDNAKNTVYLQMNSLKPEDTAVYYCAKDVYSYYYPYRYESWGQGTQVTVSS,low polyreactivity
19,QVQLVESGGGLVQAGGSLRLSCAASGSIFAYYTMGWSRQAPGKERELVATISSRGGSTNYADSVKGRFTISRDNAKNTVYLQMNSLKPEDTAVYYCNTAGAADRRRAYDHDYWGQGTQVTVSS,high polyreactivity
20,QVQLVESGGGLVQAGGSLRLICAAAGRTFWYNAMGWYRQAPGKERELVAVISSGAITYYADSVKGRFTISRDNAKNTVYLQMNSLKPEDTAVYYCAARSYLSLIDYWGQGTQVTVSS,high polyreactivity
21,QVQLVESGGGIVQAGGSLRLSCAASGLIFRRYTMGWYRQAPGKERELVAAIRNSGSSTDYADSVKGRFTISRDNAKNTVYLQMNSLKPEDTAVYYCAKRSARKLTYDSWGQGTQVTVSS,low polyreactivity
